Reference: doi:10.1101/2022.03.11.483953, “Structure and regulation of the myotonic dystrophy kinase-related Cdc42-binding kinase” (bioRxiv, 2022)

Tests used:
[1] = biological target: the molecule itself; test: rotary shadowing electron microscopy; samples at 50 μg/ml in 100 mM ammonium acetate, 30% (v/v) glycerol, pH 7.4, sprayed on mica, coated with platinum and carbon
[2] = biological target: T1, FITC-labeled CRIB peptide of C. elegans MRCK1 (residues 1543-1572) (C. elegans, UniProt O01583 1543-1572, fluorescein (FITC) label, position not stated); test: fluorescence polarisation; fluorescence anisotropy; Cdc42^2-178 loaded with GMPPNP titrated into 100 nM fluorescein-labeled peptide; 20 °C, 20 mM Tris pH 8.0, 100 mM NaCl, 1 mM TCEP; one-site binding model; details: both partners purified
T1 construct: MRCK1, C. elegans, CRIB motif, residues 1543-1572; also called CRIB motif peptide; fluorescein-labeled peptide
T1 peptide (looked up): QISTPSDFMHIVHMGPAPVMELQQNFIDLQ

Row | Binder | stoichiometry N [1] | fold stronger than Cdc42 bound to GDP [2]
1 | C. elegans MRCK1, full length (MRCK1^1-1592) (enzyme, UniProt O01583 1-1592, looked up, source: baculovirus-infected Sf9 insect cells, purified (HisTrap, TEV cleavage, HiTrap Q); not shown: His10, N-terminal, cleaved; StrepII, N-terminal, cleaved) MAEPPPDDSAPVRLKTLENIYMDGPSKKPEALSFETLIDSLICLYDECCNSTLRKEKCIAEFVESVKTVISKAKKLRLSRDDFEVLKVIGKGAFGEVAVVRMRGVGEIYAMKILNKWEMVKRAETACFREERDVLVYGDRRWITNLHYAFQDEKNLYFVMDYYIGGDMLTLLSKFVDHIPESMAKFYIAEMVLAIDSLHRLGYVHRDVKPDNVLLDMQGHIRLADFGSCLRILADGSVASNVAVGTPDYISPEILRAMEDGRGRYGKECDWWSLGICMYEMLYGTTPFYSERLVDTYGKIMSHQDMLDFPDDEIDWVVSEEAKDLIRQLICSSDVRFGRNGLSDFQLHPFFEGIDWNTIRDSNPPYVPEVSSPEDTSNFDVDVCEDDFTPCLQETQPPRVLAAFTGNHLPFVGFSYTHGSLLSDARSLTDEIRAIAQRCQGDAELMEKSVDGFMVELENEKAELVQKLKEAQTIIAQHVAENPRSEEDRNYESTIAQLKDEIQILNKRLEDEALAQQQQKPKDEIVAESEKKLKELKERNKQLVMEKSEIQRELDNINDHLDQVLVEKATVVQQRDDMQAELADVGDSLLTEKDSVKRLQDEAEKAKKQVADFEEKLKEIETEKIALIKKQEEVTIEARKSVETDDHLSEEVVAAKNTIASLQATNEERETEIKKLKQRMDEERASHTAQSEQEMKQLEAHYERAQKMLQDNVEQMNVENRGLRDEIEKLSQQMAALPRGGLNEQQLHEIFNWVSEEKATREEMENLTRKITGEVESLKNNSPLTTSNYIQNTPSGWGSRRMNNVARKDGLDLQRQLQAEIDAKLKLKAELKNSQEQYLTSAARLDDTEKRMASLMREVAMLKQQKNIENSSDSAFSSTMGRGDLMISMNNDYEMSNSSLMRQEMISRQSTPSYENAILLHDHQVPKRVDDLRYKQKPMKTASGIFSPVSISAMERGHNFERMKIKTPTKCGHCTSILIGLDRQGLFCQSCQYACHVSCAERVSQSCPVPEEERRPLGIDPTRGVGTAYEGLVKTPRAGGVRKGWQTAYVVVCDFKLYLYDCTVDRQNKMQDVKNEIRLVLDMRDPDFTVCGVSEADVIHAQKGDIPKIFRVTTTQILNSSSEYSSSSKFYTLFMAETEEEKRKWVVALSELKTLLRRSKLADRKAFLVKEVFDVTTLPSIRVAQCCAIIDRSKIVIGFSDHGLYCIEISRQLLIPVGGEKENKQRCVETVEYDEAEQLLMMIVGPAKDRHVRIVPSAALDGRDLKWIKVNDTKGCHLLAVGTNNPGGRAGFFAVAFKKSVTIFQIDRSEKRHKKWKDLAMPGTPQSIAIFNGRLYVGFSHSFRSWSLVGVDSSPVGSGDASGAVLQHISLVNMEDTSLQFLNQQTSYEAKLIVNVPGSPDEYLLVFNMIGLYVNEMGRRSRLPEVMFPTQAKYFAYHEPYLCVFSENEVDIFNVTLAEWVQTINLRSAKPLSGDGILSTCLCNDSPIFVLLQNVLQDQDSIEVPVNLASGSTDGRKVTRRKFTFRTIGKDDRSASERRSHIQISTPSDFMHIVHMGPAPVMELQQNFIDLQSNHSHTSSDKDSLNRSVNND | 2 | –
2 | Cdc42^2-178 (C-terminally truncated Cdc42 lacking its geranylgeranylation motif) (domain or fragment, Cdc42, residues 2-178, C-terminally truncated; Loaded with GDP or with GMPPNP (Dbs exchange factor, then size exclusion) before the titration; the two loaded states are told apart by the assay; The species may be human instead (P60953); also called Cdc42 (residues 2-178); source: E. coli, purified (GST beads, TEV cleavage, SD75 size exclusion); not shown: GST, N-terminal, cleaved) not shown | – | 5 fold
